Data as given in patent US20130252987A1, “METHOD OF REGULATING PLASMA LIPOPROTEINS” (MCMASTER UNIVERSITY, priority 2010, published 2013).

What was measured:
[1] = tested on: HepG2 cells; experiment: apoB and apolipoprotein expression and secretion, immunoprecipitation and Western blot; format: cell-based, human
Description: During experiments in which HepG2 cells were treated with human recombinant resistin (Calbiochem, UK) the media was changed to 1% FBS-containing DMEM. […] In separate experiments, cells were treated with the fatty acid, oleate (100 μM) (Sigma, ON) for 24 hours, with or without human resistin (50 ng/mL) for 24 hours. In other experiments, cells were treated with the 10 μM lactacystin (Cayman Chemical, Ann Arbor, Mich.) for 24 hours to assess intracellular proteosome-dependent apoB protein degradation.
Horseradish peroxidase-conjugated antibodies (BioRad, Hercules, Calif.) were used as secondary antibodies.
All of the experiments to follow were performed three times and representative results are shown. […] Immunoprecipitation on cell lysates and media, followed by Western blots to detect the cellular expression and secretion of human apoB protein were then performed. The constitutively expressed cellular proteins, beta-actin and albumin were used as internal immunoblot controls to confirm equal protein loading in the apoB immunoblots of cell lysates and media, respectively. […] Treatment with 25 ng/mL resistin further stimulated apoB secretion by approximately 250% compared with untreated cells (FIG. 1A).

[2] = tested on: mouse primary hepatocytes; experiment: cellular apoB100 protein expression in primary mouse hepatocytes; format: cell-based; conditions: 50 ng/mL, 24 hours
Description: Primary Cells: Fresh wild-type rat and mouse primary heptaocytes were supplied by CellzDirect (Invitrogen, NC) in a 6-well collagen coated plate. Upon arrival, the storage media was removed and incubation media (Williams E Medium, phenol red free, with incubation supplement pack, Gibco, NC) was added according to manufactures' instructions. The cells were incubated at 37° C. with 5% CO2 for 16 hours prior to human resistin (50 ng/mL) treatment for 24 hours. Cryopreserved plateable human hepatocytes, metabolism qualified from multiple normal human donors, were supplied by CellzDirect (Invitrogen, NC). Upon arrival, the cells (4-8 million in 1 mL), according to the manufacturer's instruction, were added to 48 mL warmed thawing medium (CHRM® Medium, Invitrogen, NC) and centrifuged at 100×g for 10 min at room temperature. The pellet was re-suspended in 4 mL plating medium (Williams E Medium, phenol red free, with maintenance supplement pack and 10% FBS, Gibco, NC). The cells were stained by Trypan Blue (Sigma, Canada) and counted by a haemocytometer, followed by seeding 1×10^6 cells/well in a 6-well collagen coated plate (CellzDirect, Invitrogen, NC). The cells were incubated at 37° C. with 5% CO2 for 4 hours to allow the cells to adhere. The plating media was replaced and cell incubated for 16 hours prior to human resistin treatment for 24 hours. […]

[3] = tested on: HepG2 cells; experiment: cell viability, tryphan blue staining; format: cell-based, human; conditions: 50 ng/mL or 100 ng/mL, 24 or 48 hours
Description: Cell viability was determined with 0.4% tryphan blue (Sigma-Aldrich, ON) staining and calculated using the following formula: % Cell Viability=(number of unstained (living) cells/Total number of cells)×100.
The next question was whether this amount of human resistin is toxic to hepatocytes. Tryphan blue staining of HepG2 cells upon 50 ng/mL of resistin treatment to determine cell viability was performed.

[4] = tested on: HepG2 cells; experiment: gas chromatography of hepatocyte lipids; format: cell-based, human; conditions: 50 ng/mL, 24 hours
Description: Lipids from HepG2 cell extracts were quantified by gas chromatography (GC) as described in Sahoo et al. (J. Lipid Res. 45:1122-1131). Briefly, cell extracts were incubated with phospholipase C (Sigma, ON) to remove polar head groups, then extracted in the presence of internal standard by the method of Folch et al. (J Biol Chem 226:497-509). Extracted lipids were passed through a sodium sulfate column to remove aqueous contaminants, and derivatized with Sylon BFT (Supelco, ON) to cap reactive hydroxyl and carboxyl groups. Derivatized lipids were dissolved in hexane and injected onto a Zebron ZB-5 column (Phenomenex, Torrance, Calif.) in an Agilent 6890 GC instrument. Lipoprotein Profiles. HepG2 media from 6-10 cm plates was collected and concentrated using an Amicon Centriprep concentrator 50 K and lipoprotein classes separated by fast protein liquid chromatography (FPLC) on a Superose 6 10/30 gel filtration column (Amersham, UK) followed by inline post-column reaction with either Infinity Triglyceride or Infinity Cholesterol reagent (Thermo Scientific, West Palm Beach, Fla.) and measurement of absorbance @ 500 nm.
To quantify the hepatocyte lipid changes induced by human resistin, gas chromatography (GC) analyses of lipids extracted from harvested hepatocytes either untreated or treated with human resistin (50 ng/mL) for 24 hours was performed.

B1: human resistin: recombinant lyophilized purified human resistin (Calbiochem); cysteine-rich cytokine, single 12 kDa band (protein)
chain: KTLCSMEEAINERIQEVAGSLIFRAISSIGLECQSVTSRGDLATCPRGFAVTGCTCGSACGSWDVRAETTCHCQCAGMDWTGARCCRVQP
increase of hepatic apoB cellular protein expression and secretion versus control, untreated HepG2 cells ([1]; 10 ng/mL resistin, 24 hours): ~100% | stimulation of apoB secretion compared with untreated cells ([1]; 25 ng/mL resistin, 24 hours): approximately 250% | effect on the stimulatory effect of oleate on hepatic cellular apoB expression and secretion ([1]; 50 ng/mL resistin added to 100 μM oleate, 24 hours): doubled | apoB expression or secretion on addition to lactacystin ([1]; 50 ng/mL resistin added to lactacystin 10 μM, 24 hours): did not further increase | increase in cellular apoB protein expression versus untreated cells ([1]; 50 ng/mL resistin, 24 hours): approximately 3500% | increase in secreted apoB versus untreated cells ([1]; 50 ng/mL resistin, 24 hours): 1000% | apoB secretion above untreated HepG2 cells ([1]; 50 ng/mL resistin, after 48 hours, no restimulation): 100% | earliest time of increase in apoB protein secretion into HepG2 cell media ([1]; 50 ng/mL resistin, time course): 4 h | time of maximal cumulative effect on apoB protein expression in the media ([1]; 50 ng/mL resistin, time course): 24 h | increase in secretion of apoB protein by HepG2 cells ([1]; 50 ng/mL, 24 hour): approximately 8 fold | apoCI or CIII protein expression ([1]; 50 ng/mL, versus untreated): no difference | expression of secreted apoE ([1]; 50 ng/mL, versus untreated): increase | cellular apoB expression and secretion versus that produced by 50 ng/mL resistin ([1]; 100 ng/mL resistin, 24 hours): reduced cellular apoB expression markedly | increase in cellular apoB protein expression versus untreated control cells [2]: 40-50% | hepatocyte viability [3]: no marked reduction | increase in cholesteryl ester content [4]: 18% | increase in free cholesterol content [4]: 3% | increase in triglyceride content [4]: 24%
